B1: Protein P-30, P22069 (parent)
chain: QDWLTFQKKHITNTRDVDCDNIMSTNLFHCKDKNTFIYSRPEPVKAICKGIIASKNVLTTSEFYLSDCNVTSRPCKYKLKKSTNKFCVTCENQAPVHFVGVGSC

Variants of: B1
Settings: Lithobates pipiens; pH 2; 25 °C; Thermal; DSC; MES 100 mM; reversible: yes; structure 1ONC; whole UniProt chain shown

Row | Variant | ddG of mutation (higher = less stable) [kcal/mol] | unfolding free energy [kcal/mol]
1 | M23L | 2.51 | 6.33

Same assay, conditions: Lithobates pipiens; pH 2; Thermal; DSC; MES 100 mM; reversible: yes; structure 1ONC; whole UniProt chain shown

Row | Variant | Tm [°C] | change of melting temperature, mutant - wild type (higher = more stable) [°C] | heat capacity change of unfolding [kcal/mol/K] | unfolding enthalpy (calorimetric) [kcal/mol] | unfolding enthalpy (van 't Hoff) [kcal/mol]
2 | M23L | 62.2 | -7.3 | 1.24 | 84.8 | 88.4

Same assay, conditions: Lithobates pipiens; pH 2.5; 25 °C; Thermal; DSC; MES 100 mM; reversible: yes; structure 1ONC; whole UniProt chain shown

Row | Variant | ddG of mutation (higher = less stable) [kcal/mol] | unfolding free energy [kcal/mol]
3 | M23L | 2.29 | 7.24

Same assay, conditions: Lithobates pipiens; pH 2.5; Thermal; DSC; MES 100 mM; reversible: yes; structure 1ONC; whole UniProt chain shown

Row | Variant | Tm [°C] | change of melting temperature, mutant - wild type (higher = more stable) [°C] | heat capacity change of unfolding [kcal/mol/K] | unfolding enthalpy (calorimetric) [kcal/mol] | unfolding enthalpy (van 't Hoff) [kcal/mol]
4 | M23L | 65.8 | -6.8 | 1.51 | 90.8 | 87.3

Same assay, conditions: Lithobates pipiens; pH 3; 25 °C; Thermal; DSC; MES 100 mM; reversible: yes; structure 1ONC; whole UniProt chain shown

Row | Variant | ddG of mutation (higher = less stable) [kcal/mol] | unfolding free energy [kcal/mol]
5 | M23L | 2.77 | 8.03

Same assay, conditions: Lithobates pipiens; pH 3; Thermal; DSC; MES 100 mM; reversible: yes; structure 1ONC; whole UniProt chain shown

Row | Variant | Tm [°C] | change of melting temperature, mutant - wild type (higher = more stable) [°C] | heat capacity change of unfolding [kcal/mol/K] | unfolding enthalpy (calorimetric) [kcal/mol] | unfolding enthalpy (van 't Hoff) [kcal/mol]
6 | M23L | 68.9 | -7.6 | 1.39 | 95.6 | 94.7

Same assay, conditions: Lithobates pipiens; pH 3.5; 25 °C; Thermal; DSC; MES 100 mM; reversible: yes; structure 1ONC; whole UniProt chain shown

Row | Variant | ddG of mutation (higher = less stable) [kcal/mol] | unfolding free energy [kcal/mol]
7 | M23L | 2.89 | 9.32

Same assay, conditions: Lithobates pipiens; pH 3.5; Thermal; DSC; MES 100 mM; reversible: yes; structure 1ONC; whole UniProt chain shown

Row | Variant | Tm [°C] | change of melting temperature, mutant - wild type (higher = more stable) [°C] | heat capacity change of unfolding [kcal/mol/K] | unfolding enthalpy (calorimetric) [kcal/mol] | unfolding enthalpy (van 't Hoff) [kcal/mol]
8 | M23L | 74.7 | -6.9 | 1.48 | 103 | 99.8

Same assay, conditions: Lithobates pipiens; pH 4; Thermal; DSC; MES 100 mM; reversible: yes; structure 1ONC; whole UniProt chain shown

Row | Variant | Tm [°C] | change of melting temperature, mutant - wild type (higher = more stable) [°C] | heat capacity change of unfolding [kcal/mol/K] | unfolding enthalpy (calorimetric) [kcal/mol] | unfolding enthalpy (van 't Hoff) [kcal/mol]
9 | M23L | 80.7 | -6.1 | 1.34 | 112 | 115

Same assay, conditions: Lithobates pipiens; pH 5; 25 °C; Thermal; DSC; MES 100 mM; reversible: yes; structure 1ONC; whole UniProt chain shown

Row | Variant | ddG of mutation (higher = less stable) [kcal/mol] | unfolding free energy [kcal/mol]
10 | M23L | 2.65 | 11.5

Same assay, conditions: Lithobates pipiens; pH 5; Thermal; DSC; MES 100 mM; reversible: yes; structure 1ONC; whole UniProt chain shown

Row | Variant | Tm [°C] | change of melting temperature, mutant - wild type (higher = more stable) [°C] | heat capacity change of unfolding [kcal/mol/K] | unfolding enthalpy (calorimetric) [kcal/mol] | unfolding enthalpy (van 't Hoff) [kcal/mol]
11 | M23L | 82.3 | -6 | 1.43 | 115 | 117

Same assay, conditions: Lithobates pipiens; pH 6; 25 °C; GdnHCl; CD; MES 100 mM; reversible: yes; structure 1ONC; whole UniProt chain shown

Row | Variant | ddG of mutation (higher = less stable) [kcal/mol] | denaturant m value [kcal/mol/M] | denaturant midpoint (higher = more stable) [M] | unfolding free energy [kcal/mol]
12 | M23L | 3.06 | 3.25 | 3.4 | 11

Same assay, conditions: Lithobates pipiens; pH 6; 25 °C; GdnHCl; Fluorescence; MES 100 mM; reversible: yes; structure 1ONC; whole UniProt chain shown

Row | Variant | ddG of mutation (higher = less stable) [kcal/mol] | denaturant m value [kcal/mol/M] | denaturant midpoint (higher = more stable) [M] | unfolding free energy [kcal/mol]
13 | M23L | 2.63 | 3.3 | 3.4 | 11.2

Same assay, conditions: Lithobates pipiens; pH 6; 25 °C; Thermal; DSC; MES 100 mM; reversible: yes; structure 1ONC; whole UniProt chain shown

Row | Variant | ddG of mutation (higher = less stable) [kcal/mol] | unfolding free energy [kcal/mol]
14 | M23L | 2.65 | 11.5

Same assay, conditions: Lithobates pipiens; pH 6; Thermal; DSC; MES 100 mM; reversible: yes; structure 1ONC; whole UniProt chain shown

Row | Variant | Tm [°C] | change of melting temperature, mutant - wild type (higher = more stable) [°C] | heat capacity change of unfolding [kcal/mol/K] | unfolding enthalpy (calorimetric) [kcal/mol] | unfolding enthalpy (van 't Hoff) [kcal/mol]
15 | M23L | 82.8 | -5.9 | 1.29 | 115 | 112

Same assay, conditions: Lithobates pipiens; pH 7; 25 °C; Thermal; DSC; MES 100 mM; reversible: yes; structure 1ONC; whole UniProt chain shown

Row | Variant | ddG of mutation (higher = less stable) [kcal/mol] | unfolding free energy [kcal/mol]
16 | M23L | 2.22 | 11.5

Same assay, conditions: Lithobates pipiens; pH 7; Thermal; DSC; MES 100 mM; reversible: yes; structure 1ONC; whole UniProt chain shown

Row | Variant | Tm [°C] | change of melting temperature, mutant - wild type (higher = more stable) [°C] | heat capacity change of unfolding [kcal/mol/K] | unfolding enthalpy (calorimetric) [kcal/mol] | unfolding enthalpy (van 't Hoff) [kcal/mol]
17 | M23L | 82 | -5.8 | 1.46 | 115 | 118

Same assay, conditions: Lithobates pipiens; pH 8; 25 °C; Thermal; DSC; MES 100 mM; reversible: yes; structure 1ONC; whole UniProt chain shown

Row | Variant | ddG of mutation (higher = less stable) [kcal/mol] | unfolding free energy [kcal/mol]
18 | M23L | 2.39 | 10.6

Same assay, conditions: Lithobates pipiens; pH 8; Thermal; DSC; MES 100 mM; reversible: yes; structure 1ONC; whole UniProt chain shown

Row | Variant | Tm [°C] | change of melting temperature, mutant - wild type (higher = more stable) [°C] | heat capacity change of unfolding [kcal/mol/K] | unfolding enthalpy (calorimetric) [kcal/mol] | unfolding enthalpy (van 't Hoff) [kcal/mol]
19 | M23L | 79.1 | -6.3 | 1.36 | 110 | 109
